According to patent publication US20140134132A1:

Assays:
Assay in all cases: cell-based or functional assay
[1] = molecular target: CYP3A4 (UniProt P08684)
[2] = molecular target: organic anion transporting polypeptide 1B1 (UniProt Q9Y6L6)
[3] = molecular target: multidrug resistance associated protein 2 (human) (UniProt Q92887)
multidrug resistance associated protein 2 (human), sequence (Q92887 whole entry): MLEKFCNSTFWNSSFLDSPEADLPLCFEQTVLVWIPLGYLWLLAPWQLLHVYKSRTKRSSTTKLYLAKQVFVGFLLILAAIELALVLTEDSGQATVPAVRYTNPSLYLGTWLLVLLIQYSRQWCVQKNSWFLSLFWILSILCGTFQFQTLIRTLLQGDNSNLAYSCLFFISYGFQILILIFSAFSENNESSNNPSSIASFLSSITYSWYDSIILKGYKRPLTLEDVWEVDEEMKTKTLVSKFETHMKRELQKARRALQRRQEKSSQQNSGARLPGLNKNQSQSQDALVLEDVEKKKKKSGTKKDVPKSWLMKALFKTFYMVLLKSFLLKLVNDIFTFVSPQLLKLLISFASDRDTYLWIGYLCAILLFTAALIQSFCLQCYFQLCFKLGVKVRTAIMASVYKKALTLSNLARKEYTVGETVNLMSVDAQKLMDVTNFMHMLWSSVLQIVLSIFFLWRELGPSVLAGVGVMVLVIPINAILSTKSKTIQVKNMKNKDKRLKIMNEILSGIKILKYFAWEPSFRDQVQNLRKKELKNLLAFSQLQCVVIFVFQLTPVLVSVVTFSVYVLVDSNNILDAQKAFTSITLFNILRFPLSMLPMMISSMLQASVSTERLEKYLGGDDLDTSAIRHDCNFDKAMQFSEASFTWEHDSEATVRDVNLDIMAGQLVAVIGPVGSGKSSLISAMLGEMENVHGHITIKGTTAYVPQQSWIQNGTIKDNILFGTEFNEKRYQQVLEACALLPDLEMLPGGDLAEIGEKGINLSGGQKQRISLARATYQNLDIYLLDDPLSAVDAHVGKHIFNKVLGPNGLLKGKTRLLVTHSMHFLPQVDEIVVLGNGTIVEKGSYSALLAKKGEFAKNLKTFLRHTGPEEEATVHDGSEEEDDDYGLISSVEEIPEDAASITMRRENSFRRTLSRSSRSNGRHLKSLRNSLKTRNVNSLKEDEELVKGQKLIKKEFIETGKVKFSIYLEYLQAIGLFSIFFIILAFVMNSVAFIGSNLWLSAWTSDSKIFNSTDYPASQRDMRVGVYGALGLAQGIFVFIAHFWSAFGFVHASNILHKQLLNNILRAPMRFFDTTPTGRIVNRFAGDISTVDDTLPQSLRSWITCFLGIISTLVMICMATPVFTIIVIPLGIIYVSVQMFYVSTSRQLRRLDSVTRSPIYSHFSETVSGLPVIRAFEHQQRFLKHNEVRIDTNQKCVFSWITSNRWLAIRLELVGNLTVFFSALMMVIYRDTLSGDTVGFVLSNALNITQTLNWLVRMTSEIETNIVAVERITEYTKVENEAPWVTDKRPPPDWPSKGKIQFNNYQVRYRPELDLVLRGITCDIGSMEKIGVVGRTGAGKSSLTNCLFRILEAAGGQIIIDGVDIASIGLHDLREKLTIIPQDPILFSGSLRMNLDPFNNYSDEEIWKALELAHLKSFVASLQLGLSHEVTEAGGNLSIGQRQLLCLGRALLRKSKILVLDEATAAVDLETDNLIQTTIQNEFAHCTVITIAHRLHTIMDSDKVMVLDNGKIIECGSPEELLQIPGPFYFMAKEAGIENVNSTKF

organic anion transporting polypeptide 1B1, sequence (Q9Y6L6 whole entry): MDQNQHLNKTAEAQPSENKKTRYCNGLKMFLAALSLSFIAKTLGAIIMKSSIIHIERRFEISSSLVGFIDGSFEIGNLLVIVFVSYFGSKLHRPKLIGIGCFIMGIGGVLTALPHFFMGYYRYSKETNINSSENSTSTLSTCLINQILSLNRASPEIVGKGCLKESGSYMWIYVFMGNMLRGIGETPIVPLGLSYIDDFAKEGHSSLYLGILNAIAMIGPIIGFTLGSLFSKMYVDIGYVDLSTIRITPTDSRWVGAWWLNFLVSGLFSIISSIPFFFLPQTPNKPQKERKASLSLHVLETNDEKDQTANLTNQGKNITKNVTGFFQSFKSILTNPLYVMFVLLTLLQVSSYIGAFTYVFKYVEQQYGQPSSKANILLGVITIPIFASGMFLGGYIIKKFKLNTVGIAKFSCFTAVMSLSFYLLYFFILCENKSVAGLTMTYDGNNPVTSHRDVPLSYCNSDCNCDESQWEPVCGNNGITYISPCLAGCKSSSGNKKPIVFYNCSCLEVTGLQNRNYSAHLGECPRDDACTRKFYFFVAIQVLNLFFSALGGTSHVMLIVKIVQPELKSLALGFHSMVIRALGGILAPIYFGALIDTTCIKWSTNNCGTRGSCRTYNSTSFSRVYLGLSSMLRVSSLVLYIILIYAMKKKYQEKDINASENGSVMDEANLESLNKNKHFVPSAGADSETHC
CYP3A4, sequence (P08684 whole entry): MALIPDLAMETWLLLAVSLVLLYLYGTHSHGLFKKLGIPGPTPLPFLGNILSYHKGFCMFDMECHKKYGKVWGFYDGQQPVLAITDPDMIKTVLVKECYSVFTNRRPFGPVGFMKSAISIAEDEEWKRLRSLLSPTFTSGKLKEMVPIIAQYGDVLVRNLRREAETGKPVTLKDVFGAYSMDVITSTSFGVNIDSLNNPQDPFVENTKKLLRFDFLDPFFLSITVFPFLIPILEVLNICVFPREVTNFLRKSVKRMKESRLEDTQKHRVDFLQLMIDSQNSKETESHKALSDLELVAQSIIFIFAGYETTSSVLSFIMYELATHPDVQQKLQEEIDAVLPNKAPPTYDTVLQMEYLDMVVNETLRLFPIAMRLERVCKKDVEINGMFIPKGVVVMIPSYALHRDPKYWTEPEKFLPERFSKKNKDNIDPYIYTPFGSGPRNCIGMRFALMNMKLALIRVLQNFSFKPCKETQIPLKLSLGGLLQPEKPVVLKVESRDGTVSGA

Row | Substance | NIM TDI kinact/Ki [1] | OATP1B13 IC50 [2] | MRP2 IC50 [3]
1 | 3-[D-Ala]-4-[(2S,3R)-3-methyl-2-(methylamino)-6-morpholinohexanoyl]-cyclosporin (peptide) | 0.001 | 6.9 µM | 
2 | 3-[D-Ala]-4-[(2S,3S)-3-methyl-2-(methylamino)-4-((4-methylpiperazine-1-carbonyl)oxy)butanoyl]-cyclosporin (peptide) |  | 6.7 µM | 21 µM
3 | 3-[D-Ala]-4-[(2S,3S)-4-(2-(1,1-dioxidothiomorpholino)ethoxy)-3-methyl-2-(methylamino)butanoyl]-cyclosporin (peptide) |  | 3 µM | 28 µM
4 | 3-[D-Ala]-4-[(2S,3S)-4-(((S)-4-ethylmorpholin-2-yl)methoxy)-3-methyl-2-(methylamino)butanoyl]-cyclosporin (peptide) | 0.0004 | 1.9 µM | 

Further lines, results first:

Row | NIM TDI kinact/Ki [1] | OATP1B13 IC50 [2] | MRP2 IC50 [3] | Substance
5 | 5 M⁻¹ s⁻¹ | 1.9 µM | 15 µM | 3-[D-Ala]-4-[(2S,3R)-4-methoxy-3-methyl-2-(methylamino)butanoyl]-cyclosporin (peptide)
6 |  | 1.4 µM | 9 µM | 3-[D-Ala]-4-[(2S,3S)-3-methyl-2-(methylamino)-4-(methylsulfonyl)butanoyl]-cyclosporin (peptide)
7 | 0.0007 | 3.5 µM |  | 3-[D-Ala]-4-[(2S,3S)-4-(2-(4-cyclobutylpiperazin-1-yl)ethoxy)-3-methyl-2-(methylamino)butanoyl]-cyclosporin (peptide)
8 | 0.0015 | 1.8 µM |  | 3-[D-Ala]-4-[(2S,3S)-4-(2-hydroxy-2-methylpropoxy)-3-methyl-2-(methylamino)butanoyl]-cyclosporin (peptide)
9 |  | 5.1 µM | 14 µM | 3-[D-Ala]-4-[(2S,3S)-4-methoxy-3-methyl-2-(methylamino)butanoyl]-cyclosporin (peptide)
